Laboratory results reported in patent publication US8158577B2, “Modulation of cartilage homeostasis by active domains of cell binding extracellular matrix molecules” (priority 2004, dated 2012).

Columns and labels:
[1] = target: T1, Syndecan 3 (Homo sapiens, UniProt O75056); experiment: Affinity purification of K105 membrane proteoglycans on chondroadherin-agarose and immunoprecipitation with pan-syndecan antibody; format: binding; conditions: eluted with 0.5 M NaCl, after heparitinase
T1 construct: endogenous in cells; host or cells: human chondrosarcoma cells K105 (membrane fraction, surface-biotinylated)
Experimental: Recombinant chondroadherin (2.5 mg expressed in EBNA-cells per ml agarose) was coupled to Mini-Leak agarose (Kem En Tec, A/S, Denmark) according to the manufacturer's instructions. The control agarose was treated in the same manner but with no protein added.
Human chondrosarcoma cells (k105) suspended in PBS were incubated with EZ-link sulfo NHS-LC biotin (Pierce Chemical Co) at a final concentration of 1 mg/ml for 1 hour at room temperature. The cells were incubated for 10 minutes in 0.1 M glycine in PBS to block free biotin, washed three times in PBS and then resuspended and homogenized in 10 mM KCl, 20 mM Tris/HCl, pH 7.4, 1 mM EDTA (1 ml/10^6 cells). Nuclei were removed by centrifugation at 1,500 g for 5 minutes, 0.15 M NaCl was added to the supernatant and the membrane fraction was collected by centrifugation at 50,000 g for 30 minutes. The pellet was suspended in 2 ml 8 M UREA, 2% […] in TBS pH 7.4 supplemented with COMPLET® protease inhibitor (Roche). The lysate was cleared by centrifugation at 14,000 g for 20 min. […]
Cell surface proteins on human chondrosarcoma cells (K105) were biotin labeled and affinity purified on chondroadherin-agarose in urea. Bound material was eluted with 0.5 M NaCl, separated on SDS-PAGE (4-12%) and detected by Western blot before or after heparitinase and chondroitinase ABC treatment. […]

[2] = Heparin binding on Heparin-Sepharose; conditions: eluted with NaCl (0.5, 1, 2M), Western blot or MALDI-TOF MS
Experimental: Intact recombinant protein (10 μg, EBNA-cell expressed) diluted in PBS was passed over Heparin-Sepharose (Amersham Pharmacia) (1 ml), washed with 20 volumes of PBS and eluted with 2 M NaCl (6×1 ml). Eluted material was precipitated with ethanol, separated by SDS-PAGE (10%) and visualized by western blot (CHAD ab α-80, Larsson et al). The peptide CKFPTKRSKKAGRH (SEQ ID No:7) was diluted in PBS and passed over heparin-sepharose (100 μl), the column was washed with 20 volumes PBS and bound material eluted with 0.5, 1, and 2M NaCl (3 column volumes of each).
Recombinant chondroadherin (10 or 100 μg) expressed in EBNA-cells was passed over Heparin-Sepharose-column (Pharmacia). The column was washed and eluted with 2M NaCl in PBS. Eluted material was separated on SDS-PAGE (10%) and detected by western blot using a chondroadherin antibody (see FIG. 4). The band at 36 kDa represents chondroadherin ant the band at 72 kDa represents a dimer of chondroadherin.
The candidate peptide CKFPTKRSKKAGRH (SEQ ID No: 7) was synthesized. The ability of the peptide to bind heparin was confirmed on heparin-sepharose, where material eluted with 0.5, 1 and 2M NaCl was identified by MALDI-TOF MS (data not shown).

[3] = system: K9 cells; experiment: Adhesion of K9 cells to selected matrix constituents (FIG. 1); format: cell-based, human; conditions: 5 μg/ml coating, 1 hour at 37° C., 50,000 cells/well seeded
Experimental: Human cells (K9) originating from a human chondrosarcoma were a kind gift from Drs. Sven Inerot and Anders Lindahl, The Salgrenska University Hospital Gothenburg, Sweden. The K9 cells were cultured in Dulbeccos Modified Eagle Medium: Nutrient Mixture F12 (DMEM/F12 1:1) with GLUTAMAX I, supplemented with 10% fetal calf serum, 25 μg/ml ascorbic acid, 50 IU of penicillin and 50 μg/ml streptomycin (Life Technologies, Inc.). A different human cells line (K105) originating from a human chondrosarcoma was a kind gift from Dr. Sven Inerot, The Salgrenska University Hospital, Gothenburg, Sweden. […]
To test cell binding, the chondrosarcoma cells or bovine chondrocytes were suspended in PBS containing 0.1% BSA, 25 U/ml collagenase and added to the wells (50,000/well), in the absence or presence of various peptide pools or the synthetic peptides (200, 100, 50, 25, 12.5 μg/ml). Non-adherent cells were removed after 1 hour and adhesion was determined by measuring lysosomal N-acetylglucosaminidase (12). […]
48-well tissue culture dishes were coated with 5 μg/ml collagen type II, tissue extracted bovine chondroadherin, human chondroadherin expressed in EBNA cells and human chondroadherin expressed in E. coli and blocked for non-specific binding with BSA. […] Nonadherent cells were removed by washing and adhesion was determined by analyzing lysosomal N-acetylglucosaminidase. […]

T1 sequence (O75056 whole entry): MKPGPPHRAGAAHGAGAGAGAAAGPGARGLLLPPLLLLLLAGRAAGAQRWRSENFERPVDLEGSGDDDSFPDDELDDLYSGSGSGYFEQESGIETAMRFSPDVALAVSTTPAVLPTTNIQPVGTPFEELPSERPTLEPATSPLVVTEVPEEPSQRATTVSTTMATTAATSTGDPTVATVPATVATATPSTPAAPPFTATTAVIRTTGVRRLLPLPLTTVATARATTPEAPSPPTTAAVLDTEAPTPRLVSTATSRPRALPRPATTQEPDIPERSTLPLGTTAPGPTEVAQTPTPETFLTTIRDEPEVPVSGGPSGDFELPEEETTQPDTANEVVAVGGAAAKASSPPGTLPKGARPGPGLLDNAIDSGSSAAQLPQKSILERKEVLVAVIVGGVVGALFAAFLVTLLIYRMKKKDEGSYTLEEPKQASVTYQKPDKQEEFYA

B1: Chondroadherin (protein)
chain: ACPQNCHCHSDLQHVICDKVGLQKIPKVSEKTKLLNLQRNNFPVLAANSFRAMPNLVSLHLQHCQIREVAAGAFRGLKQLIYLYLSHNDIRVLRAGAFDDLTELTYLYLDHNKVTELPRGLLSPLVNLFILQLNNNKIRELRAGRFQGAKDLRWLYLSENALSSLQPGALDDVENLAKFHVDRNQLSSYPSAALSKLRVVEELKLSHNPLKSIPDNAFQSFGRYLETLWLDNTNLEKFSDGAFLGVTTLKHVHLENNRLNQLPSNFPFDSLETLALTNNPWKCTCQLRGLRRWLEAKASRPDATCASPAKFKGQHIRDTDAFRSCKFPTKRSKKAGRH
modifications: homo sapiens
notes: leucine-rich cartilage matrix protein, 338 amino acids; human recombinant, expressed in EBNA cells or E. coli
For B1, the “K105 membrane component bound to chondroadherin” value [1] was “Syndecan 3”, the binding to heparin-sepharose [2] was “bind to the heparin-sepharose” and the binding to heparin-sepharose ([2]; listed as Recombinant chondroadherin) was “bind heparin”. For the same molecule, the “adhesion of K9 cells to coated substrate (number of cells)” value [3] was “virtually identical to that of the bacterially expressed”.
